In patent publication US20260209353A1 (BINACEA PHARMA, published 2026):
Positions count from the first letter of the chain named.

B1: Clone 1D7 VHH (secreted VHH in TG1 supernatant) (VHH)
VHH: QVQLQESGGGLVQAGGSLRLSCAASGFTFDDYAIGWFRQAPGKEREGVSCISNIDGRTYYADSVKGRFTISSDNAKNTVYLQMNSLKPEDTAVYYCAAEGLHSCRDLYYGMDYWGKGTLVTVSS
notes: Expressed from phagemid pADL-23c
B2: Clone 1B1 VHH (secreted VHH in TG1 supernatant) (VHH)
VHH: B1 VHH with R19K, D30N, R38P, S52I, R57S, T69P
notes: as for B1
B3: Clone 1B3 VHH (secreted VHH in TG1 supernatant) (VHH)
VHH: B1 VHH with R57H, R105K
notes: as for B1
B4: Clone 1E2 VHH (secreted VHH in TG1 supernatant) (VHH)
VHH: B1 VHH with S103P
notes: as for B1
B5: Clone 2B10 VHH (secreted VHH in TG1 supernatant) (VHH)
VHH: B1 VHH with Q5V, R57S, H102R
notes: as for B1
B6: Clone 2E7 VHH (secreted VHH in TG1 supernatant) (VHH)
VHH: B1 VHH with F27V, T28P, R57S
notes: as for B1
B7: Clone 2G1 VHH (secreted VHH in TG1 supernatant) (VHH)
VHH: B1 VHH with N53S, R57S, S72R, A75D, A97T, L119Q
notes: as for B1
B8: Clone 2G7 VHH (secreted VHH in TG1 supernatant) (VHH)
VHH: B1 VHH with Q3K, Q5E, R57S, Y113H
notes: as for B1
B9: Clone 3C3 VHH (secreted VHH in TG1 supernatant) (VHH)
VHH: QVQLVDSGGGLVQAGGSLRVSCAASGLTVSSEHMGWFRQAPGKQREFVAAISGNGGSTYYADSVKGRFTISRDNAKNTVYLQMNSLKPEDTAVYTCAADRQVWRVTSYHDYDYDSWGQGTLVTVSS
notes: as for B1

Target: T1, hu-CD8A ECD (recombinant, coated on ELISA plates) (human, UniProt P01732 22-182)
T1 construct: also called Human CD8A ECD; not shown: C-terminal (His)x6 or Fc tag
Assay: ELISA, VHH supernatants on hu-CD8A ECD coated plates

T1 sequence (P01732 22-182): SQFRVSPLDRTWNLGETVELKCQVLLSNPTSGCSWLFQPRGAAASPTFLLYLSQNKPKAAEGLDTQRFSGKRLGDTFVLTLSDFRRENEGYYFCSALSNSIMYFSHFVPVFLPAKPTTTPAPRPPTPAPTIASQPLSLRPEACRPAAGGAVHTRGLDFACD

Question: Does B1 bind?
Answer: binds

Question: Does B2 bind?
Answer: binds

Question: Does B3 bind?
Answer: binds

Question: Does B4 bind?
Answer: binds

Question: Does B5 bind?
Answer: binds

Question: Does B6 bind?
Answer: binds

Question: Does B7 bind?
Answer: binds

Question: Does B8 bind?
Answer: binds

Question: Does B9 bind?
Answer: binds
